The results in this text go back to the supplement of paper PMC9170038.

Data set [1] concerns MS2 coat protein. As to the kind of experiment: apparent KD of MS2 coat protein; designed switch direction (-1 OFF switch, 1 ON switch): 1; higher = weaker reporter binding. As to conditions: Eterna round: R98. As to the method:
(§1)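 RNA-MaP: designed FMN/MS2 RNA switches (84 nt design region) are transcribed on-chip within common flanks and titrated with SNAP-549-labelled MS2 coat protein (about 1-3000 nM) in 100 mM Tris pH 7.5, 80 mM KCl, 4 mM MgCl2, without or with 200 uM FMN. Median apparent KD per design; activation ratio = KD,OFF / KD,ON.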

For data set [2], the system named is MS2 coat protein. As to the kind of experiment: apparent KD of MS2 coat protein; designed switch direction (-1 OFF switch, 1 ON switch): -1; higher = weaker reporter binding. To be noted: Eterna round: R98. As to the method: as §1
In data set [3] the test system is MS2 coat protein. Nature of the data set: apparent KD of MS2 coat protein; higher = weaker reporter binding. To be noted: Eterna round: R101. As to the method:
as §1

Consider “AUAUAAAAUAUAGGAUAUGGAAACAUGAGGAUCACCCAUGUAUGAUAAGAUAAAUAAUGAUAUAGCCAGAAGGAUACAAUAUAA [LRO008_SS NG 2]”, for which the “apparent KD of MS2 coat protein” value in the data set on MS2 coat protein [1] (input ligand: FMN 200 uM) was 47.5 nM; with MS2 coat protein [1] (input ligand: none) it was 38.2 nM.

On to “UAACAGCGAAGAUAAUAAUGAAUACAUGAGGAUCACCCAUGUAAGGAUAUCGUCAGGAAUACUGACGAGAAGGUACAUACGCUG [Exclusion NG 3/17-B2]”, for which the “apparent KD of MS2 coat protein” value stood at 23.2 nM in the data set on MS2 coat protein [2] (input ligand: FMN 200 uM) and 16.7 nM with MS2 coat protein [2] (input ligand: none).

Turning to “AUCUAUCGGUCAGGAUAUUCACAUGAGGAUCACCCAUGUGAGCCUCGGCCAAAGUGAACGCAUGUGAAGAAGGGACGGCAAAAC [Atceen]”, the “apparent KD of MS2 coat protein” value in the data set on MS2 coat protein [2] (input ligand: FMN 200 uM) worked out at 33.4 nM; with MS2 coat protein [2] (input ligand: none), 27.8 nM.

For “CUGUGGGCCAUAGGAUAUGCGCAGAAUUAGCAAGCAGAAGGGUGGAUCGGACAAUAAUAACUACAUGAGGAUCACCCAUGUGCU [Lelegeza]”, the figures for the “apparent KD of MS2 coat protein” value in the data set on MS2 coat protein [1] (input ligand: FMN 200 uM) and in the data set on MS2 coat protein [1] (input ligand: none) were 55.5 nM and 139 nM, respectively.

“AAUAAUCAGGUAGGAUAUGCUCAGGAAUACUGAGCAGAAGGACUAGAAACCUGAGGAUCACCCAGGUAACUGGAAUAAUAAUAA [Same State NG1 - A3C, U17G Submission 6A]”: the “apparent KD of MS2 coat protein” value with MS2 coat protein [1] (input ligand: FMN 200 uM) is 53.6 nM; in the data set with MS2 coat protein [1] (input ligand: none), 78.3 nM.

Regarding “AGUUGCAAACAGAACAUGAGGAUCACCCAUGUGCUCUCGUGUAAGGAUAUACAUUCGUAUGGAAAGUAGAAGGUACUAAUUAUG [JR_SSNG3_Sub93]”, the “apparent KD of MS2 coat protein” value in the data set with MS2 coat protein [1] (input ligand: FMN 200 uM) was 66.3 nM; in the data set on MS2 coat protein [1] (input ligand: none) it was 65.1 nM.

As for “AUGAAGAGGCAAGGAUAUCGAGUGCUGGGCCUAUACAUGAGGAUCACCCAUGUCCUGGCAGGACGUGAGAAGGUGUAUCGAAUA [Ussotemaa]”, the “apparent KD of MS2 coat protein” value with MS2 coat protein [1] (input ligand: FMN 200 uM) is 455 nM; in the data set on MS2 coat protein [1] (input ligand: none) it was 244 nM.

Turning to “CCAGAUAUAUGAGGAUAUCGAGUGGAAUACACUCGAGAAGGUAUGUGAAAACAUGAGGAUCACCCAUGUGAUUAAUAAUCUGGA [SameState NG1 #1]”, the “apparent KD of MS2 coat protein” value was 22.4 nM in the data set on MS2 coat protein [1] (input ligand: FMN 200 uM) and 16.8 nM in the data set with MS2 coat protein [1] (input ligand: none).

As for “AAAUAAAAUAUAGGAUAUGGAAACAUGAGGAUCACCCAUGUAAGAUAAGAUAAAUAAUGAUAUAGCCAGAAGGAUAAAAUAUAA [LRO005_SS NG 2]”, the “apparent KD of MS2 coat protein” value was determined as 32.7 nM in the data set on MS2 coat protein [1] (input ligand: FMN 200 uM) and 28.3 nM with MS2 coat protein [1] (input ligand: none).

For the sequence “CCGUUGCAAAUAAAACAUGAGGAUCACCCAUGUGAGUCUCAUGAGGAUAUGCAGGUCAAAGACUUGCAGAAGGCAUGGCGACGG [Mat - Same State NG 3 - JL Mod - D67]”, the “apparent KD of MS2 coat protein” value in the data set on MS2 coat protein [1] (input ligand: FMN 200 uM) stood at 118 nM; in the data set on MS2 coat protein [1] (input ligand: none) it was 1520 nM.

Take “GACGGAUUCUUAGGAUAUGCUCAGGAUAACUGAGCAGAAGGAAGAAUAACCUGAGGAUCACCCAGGUAAUACUGAACGUCAAUA [Same State NG1 - A3C, U17G Submission 9B]”: the “apparent KD of MS2 coat protein” value is 20.7 nM in the data set on MS2 coat protein [1] (input ligand: FMN 200 uM) and 64.1 nM in the data set with MS2 coat protein [1] (input ligand: none).

“GCGCGCGCGCGCGCGCGCGCGCACAUGAGGAUCACCCAUGUAUAGGAUAUCGAUUGUUGUUGAUUCGAGAAGGGUAGCGCGCGC [Exclusion NG3]”: the “apparent KD of MS2 coat protein” value in the data set on MS2 coat protein [2] (input ligand: FMN 200 uM) was 44.1 nM; in the data set on MS2 coat protein [2] (input ligand: none) it was 39.4 nM.

For the sequence “GACGAAUUCUUAGGAUAUCGAGUGGAUAACACUCGAGAAGGAAGAUAUACCUGAGGAUCACCCAGGUUAAACUGGACGUCAAUA [Same State NG1 - A3C, U17G Submission 8C]”, the “apparent KD of MS2 coat protein” value in the data set with MS2 coat protein [1] (input ligand: FMN 200 uM) was determined as 53.6 nM; in the data set on MS2 coat protein [1] (input ligand: none) it was 205 nM.

For “CAUAUAUGGUGAGGAUAUGCAGAGGAUCACCCUGUAGAAGGCAUCAGGGUAGAAGGUGCAAGGAUCACCUGUAAGGAUAUAUCC [pwkr2 ssNG1 DX.28]”, the “apparent KD of MS2 coat protein” value in the data set with MS2 coat protein [1] (input ligand: FMN 200 uM) was found to be 979 nM; in the data set on MS2 coat protein [1] (input ligand: none), 864 nM.

As to “GAGCAGGUAAAUAAACUCAAUUACAUGAGGAUCACCCAUGUAUAGGAUAUCGUCAGGAAUACUGACGAGAAGGAUACAUCCUGC [Exclusion NG 3/14-A2]”, the “apparent KD of MS2 coat protein” value in the data set on MS2 coat protein [2] (input ligand: FMN 200 uM) is 59.2 nM; with MS2 coat protein [2] (input ligand: none), 19.7 nM.

For the sequence “UCACUCACGUUAGGAUAUGGAUCGGAAAACGAUCCAGAAGGAACCUGCAAACAAGAGGAUCACCCUUGUUCCAAUAACGAGUGA [SameSame 6 - Jieux - Same State NG 1]”, the entries for the “apparent KD of MS2 coat protein” value in the data set on MS2 coat protein [1] (input ligand: FMN 200 uM) and in the data set with MS2 coat protein [1] (input ligand: none) were 40.9 nM and 51.2 nM, respectively.

As for “GGAGACCUCACAGGAUAUGCUGGACUUUGUCCAGCAGAAGGGUGAACAUGAGGAUCACCCAUGUAGGUCUCCAAAAUAUUUAAU [Denovo 50]”, the “apparent KD of MS2 coat protein” value in the data set with MS2 coat protein [1] (input ligand: FMN 200 uM) is 989 nM; with MS2 coat protein [1] (input ligand: none) it was 100 nM.

Turning to “CAUGUAUGGUGAGGAUAUGCAAAGGAUCACCUUGUAGAAGGCAUCAGGUAGAAGGUGCAGAGGAUCACCCUGUAAGGAUAUAUC [pwkr2 ssNG1 DX.23]”, the “apparent KD of MS2 coat protein” value in the data set on MS2 coat protein [1] (input ligand: FMN 200 uM) stood at 72 nM; with MS2 coat protein [1] (input ligand: none) it was 249 nM.

For “GAAUAAUAGAUCCAAUUUAUCUACAUGAGGAUCACCCAUGUGCAGGAUAUGCUAAAAUUUAAUAAGCAGAAGGGCAAGAACGGC [JR_ExcNG3_Sub016]”, the “apparent KD of MS2 coat protein” value with MS2 coat protein [2] (input ligand: FMN 200 uM) came to 374 nM; in the data set on MS2 coat protein [2] (input ligand: none) it was 104 nM.

As to “CGAACCACUUAGGUACCACACAUGAGGAUCACCCAUGUAUCACAGGAUAUGCAUGAUAUAUUCAGGCAGAAGGGUGAUCUUACC [Esananti]”, the entries for the “apparent KD of MS2 coat protein” value in the data set with MS2 coat protein [1] (input ligand: FMN 200 uM) and in the data set on MS2 coat protein [1] (input ligand: none) were 265 nM and 24.7 nM, respectively.

On to “AGGUAUACUUAGAAGGGCUCCAGCAAAGCUGGAGCAGGAUAUGAGGAUCACCCAUAUCACCUGACGGUCGAAACGACCGUCAGG [#SharedSequence - IExNG1: 8-1] (puzzle (switch architecture): Inverted Exclusion NG 1)”, for which the entries for the “apparent KD of MS2 coat protein” value in the data set on MS2 coat protein [3] (input ligand: FMN 200 uM) and in the data set with MS2 coat protein [3] (input ligand: none) were 26.8 nM and 13.2 nM, respectively.

As for “AGAAACUACGAGAAGGACAUGUGGUCCUUCGGGAAAAUGAGGAUCACCCAUGUAGGAUAUCGUAGUUUCAGGAUCGUGAGAUCA [salish99_ISLExNG1_022 #HINGE] (puzzle (switch architecture): Inverted Small Loop Exclusion NG 1)”, the “apparent KD of MS2 coat protein” value with MS2 coat protein [3] (input ligand: FMN 200 uM) amounted to 51.1 nM; with MS2 coat protein [3] (input ligand: none), 69.2 nM.

Consider “GCAGAAGGUGCGGAGGAUCACCCUGUAAGGAUAUGCAUUAGCAAGGAUAUACAGAGGAUCACCCUGUAGAAGGUGCACUUCAAA [pwkr2 ssNG3 DX.6]”, for which the “apparent KD of MS2 coat protein” value in the data set with MS2 coat protein [1] (input ligand: FMN 200 uM) was found to be 779 nM; in the data set on MS2 coat protein [1] (input ligand: none), 3160 nM.
